How the values were obtained:
[1] = molecular target: T1, MBP-PspA fragment 1-438 fusion protein (Streptococcus pneumoniae strain TCH8431 …, UniProt P0AEX9 27-392 = MBP); test: ELISA on coated MBP-PspA fragment, OD405
T1 construct: not shown: C-terminal His-tag encoded by the reverse primer PspA438-R

[2] = molecular target: T2, MBP-PspA fragment 1-512 fusion protein (Streptococcus pneumoniae strain TCH8431 …, UniProt P0AEX9 27-392 = MBP); test: ELISA on coated MBP-PspA fragment, OD405
T2 construct: not shown: C-terminal His-tag encoded by the reverse primer PspA512-R

[3] = molecular target: T3, recombinant His-tagged full-length pneumococcal surface protein A (PspA) from strain TCH8431 (serotype 19A) (Streptococcus pneumoniae strain TCH8431 …); test: ELISA on coated recombinant PspA, non-linear regression fit
T3 construct: range 1-725; also called recombinant PspA

[4] = molecular target: T4, PspA protein of pneumococcal strain TCH8431 (serotype 19A), native, in lysates or on whole bacteria (Streptococcus pneumoniae strain TCH8431 …); test: ELISA on plates coated with fixed whole bacteria, TCH8431 (19A), OD405
T4 construct: whole, on cells; also called PspA protein from strain TCH8431

B1: human monoclonal antibody PspA16 (antibody, V domains shown)
VH: QVQLVQSGPDVKKPGASVKVSCKTSGYTFTGYYMHWVRQAPGQGLEWMGWVNPNTGGTSYAQKFQGRVTVTRDTSISTVYMELSALGSDDTAIYFCARAWAPGAEYLHHWGQGTLVTVSS
VL: EIVMTQSPGTLSLSPGETATLSCRASQSVGSSYLAWYQQKPGQAPRLLIFGASNRATGIPVRFSASGSGTDFTLTISRLEPEDFAVYYCQQHDHSPFTFGPGTKVDLK
notes: also called mAb PspA16
EC50 (read off the curve) [1]: ~0.04 µg/mL
EC50 (read off the curve) [2]: ~0.04 µg/mL
EC50 [3]: 0.026 µg/mL
EC50 (read off the curve) [4]: ~0.08 µg/mL

Reference: patent US20240117019A1 (UNIVERSITY OF GEORGIA RESEARCH FOUNDATION, published 2024)
